From the supplement of paper PMC9732359
± gives the uncertainty stated by the source.

Assay: protein stability index of a GFP-peptide fusion (yeast GPS) (PSI 1-4); higher = more stable; sorted into four equal gates, so the index is relative within each strain
Procedure, shortened: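 The protein stability index of a peptide was calculated by multiplying its read frequency in each gate by that gate's number and adding the products. The peptides were tiled 17-residue stretches of yeast proteins, fused downstream of GFP on a Cherry-expressing plasmid and carried in yeast as a pooled library. Mid-log cultures in leucine-free medium were sorted into four equal gates by GFP/Cherry ratio, and each gate's plasmids were PCR-amplified and Illumina-sequenced.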

Row | Sequence | protein stability index (doa10∆) | protein stability index (pdr5∆) | protein stability index (san1∆) | protein stability index (ubr1∆)
1 | SYYSREQDALFITRLAQ [RPN1] | 1.71 ± 0.044 | 1.85 ± 0.045 | 1.65 ± 0.078 | 1.8 ± 0.042
2 | TAETGYIQRRLVKALED [RPO21] | 2.31 ± 0.073 | 2.74 ± 0.074 | 2.69 ± 0.076 | 2.74 ± 0.072
3 | TAFATEFFVQVLTHESL [DLS1] | 2.47 ± 0.11 | 2.71 ± 0.11 | 2.73 ± 0.088 | 2.02 ± 0.046
4 | TALALKYLIKYNVFRQH [CSI1] | 1.63 ± 0.06 | 1.8 ± 0.049 | 1.7 ± 0.11 | 1.86 ± 0.053
5 | TANANKPAFSFGATTND [YJL041W/NSP1] | 3.01 ± 0.07 | 2.74 ± 0.051 | 2.91 ± 0.047 | 2.88 ± 0.039
6 | TARRNVSGDAAALFRLH [SWI3] | 2.43 ± 0.093 | 2.98 ± 0.099 | 2.78 ± 0.086 | 1.95 ± 0.063
7 | TCPGLSLTDVAFFTYDA [ECM29] | 3.36 ± 0.14 | 3.05 ± 0.091 | 2.78 ± 0.072 | 3.11 ± 0.099
8 | TDEHLIFNSGKMIILDK [ISW2] | 3 ± 0.24 | 2.74 ± 0.074 | 2.35 ± 0.1 | 2.59 ± 0.058
9 | TDGADENVQIGEDFMEV [SRB4] | 2.66 ± 0.12 | 3.35 ± 0.17 |  | 3.1 ± 0.19
10 | TDKVSLSQPVSASKHEY [SIR4] | 2.29 ± 0.079 | 2.53 ± 0.057 | 2.24 ± 0.082 | 1.95 ± 0.041
11 | TDLKKIIKANQLILSDV [RET1] | 2.57 ± 0.055 | 2.34 ± 0.053 | 2.48 ± 0.053 | 2.39 ± 0.05
12 | TEDRYNEYVAKVSAREK [FAS2] | 3.2 ± 0.086 | 3.14 ± 0.074 | 3.04 ± 0.094 | 3.3 ± 0.06
13 | TEENKANTNSVTSMEAA [YIL149C/MLP2] | 3.46 ± 0.1 | 3.5 ± 0.089 | 3.12 ± 0.08 | 3.13 ± 0.058
14 | TEKKFTKEQYAAESKKY [RPL5] | 3.2 ± 0.16 | 3.07 ± 0.14 | 2.98 ± 0.075 | 3.02 ± 0.11
15 | TETALMNLKKELQGYIE [SRB5] | 3.05 ± 0.097 | 3.07 ± 0.089 | 3.11 ± 0.062 | 2.94 ± 0.085
16 | TEYCVGDYVAYQLNGVA [YMR129W/POM152] | 2.83 ± 0.14 | 3.1 ± 0.13 | 2.1 ± 0.23 | 2.52 ± 0.066
17 | TEYGRKYNVNISALTQT [PRP8] | 2.07 ± 0.14 | 2.53 ± 0.093 | 2.94 ± 0.14 | 2.5 ± 0.047
18 | TFAQEKLNTFENDLLQE [SMC3] | 3.33 ± 0.18 | 3.26 ± 0.12 | 3.12 ± 0.13 | 2.81 ± 0.13
19 | TFAVILFLIIQCYKIYD [YMR129W/POM152] | 1.35 ± 0.057 | 1.22 ± 0.046 | 1.19 ± 0.094 | 1.31 ± 0.053
20 | TFEIPQAHEIVIPSYSK [SWI3] | 2.43 ± 0.095 | 2.37 ± 0.07 | 2.39 ± 0.065 | 2.36 ± 0.064
21 | TFENTNNTEKNDVTNKN [SIR4] | 2.78 ± 0.094 | 2.89 ± 0.068 | 2.88 ± 0.059 | 3.04 ± 0.039
22 | TFFPRCIIAVSCTLLER [POP1] | 1.31 ± 0.024 | 1.36 ± 0.032 | 1.5 ± 0.051 | 1.63 ± 0.03
23 | TFGIRRNEKIAVHVTVR [RPL11A] | 2.17 ± 0.082 | 1.68 ± 0.076 | 2.12 ± 0.081 | 2.21 ± 0.072
24 | TFHDYDMVKLDINPPLV [RRP42] | 2.94 ± 0.088 | 2.73 ± 0.061 | 2.87 ± 0.096 | 3.15 ± 0.037
25 | TFQRVCQYMVACVPLLP [RPN1] | 2.5 ± 0.06 | 2.42 ± 0.071 | 1.86 ± 0.14 | 2.53 ± 0.1
26 | TFSVYHESTSRTDQYTI [YMR129W/POM152] | 2.63 ± 0.15 | 2.64 ± 0.077 | 2.58 ± 0.098 | 2.62 ± 0.066
27 | TGANSIYSVEKKISRLP [UBP6] | 3 ± 0.08 | 3.52 ± 0.11 | 3.07 ± 0.059 | 3.26 ± 0.037

Row | Sequence | protein stability index (doa10∆) | protein stability index (pdr5∆) | protein stability index (san1∆) | protein stability index (ubr1∆)
28 | TGITKKDEDEEADEDMK [PRE9] | 3.09 ± 0.057 | 3.3 ± 0.074 | 3.06 ± 0.064 | 3.07 ± 0.061
29 | TGTGLQDENIGLSMLAK [RPC31] | 3.12 ± 0.14 |  | 3.05 ± 0.13 | 3.4 ± 0.11
30 | TGVMIGIDLAYNMYDAY [PRP8] | 2.5 ± 0.064 | 2.69 ± 0.053 | 2.82 ± 0.066 | 2.84 ± 0.051
31 | THSKLFADKKRDCIDIS [PRP8] | 3.45 ± 0.095 | 3.2 ± 0.077 | 3.18 ± 0.061 | 3.38 ± 0.074
32 | TIEHAADITDGNNTELT [YCG1] | 3.29 ± 0.081 | 3.46 ± 0.082 | 3.33 ± 0.078 | 3.31 ± 0.069
33 | TIEVLDEVITEGQADID [POP7] | 2.94 ± 0.064 | 3.1 ± 0.061 | 3.06 ± 0.072 | 3.07 ± 0.049
34 | TIFGGVDKNGAHLYMLE [PRE10] | 2.88 ± 0.076 | 2.66 ± 0.071 | 2.87 ± 0.086 | 3.29 ± 0.075
35 | TIFNLPKNKLVPTLEAK [FAS1] | 2.27 ± 0.059 | 2.34 ± 0.081 | 3.08 ± 0.051 | 3.01 ± 0.061
36 | TIFSPEGRLYQVEYALE [PRE9] | 3.13 ± 0.079 | 3.32 ± 0.088 | 3.14 ± 0.11 | 3.12 ± 0.051
37 | TIGGGLFGNKPTTTTGG [YGR119C/NUP57] | 3 ± 0.094 | 3.25 ± 0.21 | 3.56 ± 0.15 | 
38 | TIGPYRARKDRMRVSVL [SSN3] | 3.19 ± 0.15 | 2.99 ± 0.085 | 3.07 ± 0.083 | 3.12 ± 0.052
39 | TIITDCAFLLTKIKDAE [YJL039C/NUP192] | 2.52 ± 0.071 | 2.78 ± 0.077 | 2.06 ± 0.13 | 2.52 ± 0.07
40 | TIKVAGTPLLEVRGQVP [SNU114] | 2.67 ± 0.08 | 2.69 ± 0.067 | 2.94 ± 0.063 | 2.98 ± 0.069
41 | TIKVVKRSMDAEQLGHA [RPP1] | 3.18 ± 0.067 | 3.28 ± 0.07 | 3.41 ± 0.042 | 3.38 ± 0.077
42 | TILQHLSEAWRCWKANI [PRP8] | 3.33 ± 0.081 | 3.36 ± 0.083 | 3.5 ± 0.047 | 3.32 ± 0.068
43 | TILYLNVFHGLCAGANN [IRR1] | 1.3 ± 0.071 | 1.64 ± 0.083 | 1.39 ± 0.087 | 1.34 ± 0.076
44 | TIPLGGSVHKLPYAIAG [PRE3] | 2.97 ± 0.066 | 2.91 ± 0.085 | 2.84 ± 0.089 | 3.08 ± 0.045
45 | TIRVVTENKIFVEVERA [RPN5] | 1.51 ± 0.18 | 1.94 ± 0.14 |  | 2.45 ± 0.27
46 | TIRYPDPNIKVNDTVKI [RPS4A] | 2.48 ± 0.09 | 2.87 ± 0.097 | 2.75 ± 0.1 | 2.71 ± 0.066
47 | TKDKAKKIREIYRYDEM [BRR2] | 2.58 ± 0.14 | 2.71 ± 0.1 | 2.46 ± 0.14 | 2.89 ± 0.059
48 | TKEVESNIITKSLVQYI [DIS3] | 2.71 ± 0.14 | 3.05 ± 0.11 | 2.65 ± 0.076 | 2.87 ± 0.19
49 | TKGMITNLQRNVDRLYK [NUT2] | 3.47 ± 0.29 | 3.35 ± 0.18 | 2.69 ± 0.24 | 3.24 ± 0.16
50 | TKIAQSQTMAETYVASY [ECM29] | 1.92 ± 0.037 | 2.48 ± 0.036 | 2.27 ± 0.044 | 2.22 ± 0.034
51 | TKKTITPMGGFVHYGEI [RPL3] | 3.2 ± 0.074 | 3.1 ± 0.072 | 3.08 ± 0.093 | 3.01 ± 0.046
52 | TKLIQYEHNGRTLEAIT [CSL4] | 2.22 ± 0.049 | 2.48 ± 0.044 | 2.38 ± 0.055 | 2.29 ± 0.034
53 | TKNIPITHRDLHYDKDY [SSN8] | 2.65 ± 0.043 | 2.87 ± 0.041 | 2.87 ± 0.03 | 2.83 ± 0.039
